# Measurements taken from patent US6904369.
# Biological target: Kit, the receptor for SCF (UniProt P10721)
# Test: cell-based or functional assay
# Sequence of Kit, the receptor for SCF (P10721 26-976 limits assumed): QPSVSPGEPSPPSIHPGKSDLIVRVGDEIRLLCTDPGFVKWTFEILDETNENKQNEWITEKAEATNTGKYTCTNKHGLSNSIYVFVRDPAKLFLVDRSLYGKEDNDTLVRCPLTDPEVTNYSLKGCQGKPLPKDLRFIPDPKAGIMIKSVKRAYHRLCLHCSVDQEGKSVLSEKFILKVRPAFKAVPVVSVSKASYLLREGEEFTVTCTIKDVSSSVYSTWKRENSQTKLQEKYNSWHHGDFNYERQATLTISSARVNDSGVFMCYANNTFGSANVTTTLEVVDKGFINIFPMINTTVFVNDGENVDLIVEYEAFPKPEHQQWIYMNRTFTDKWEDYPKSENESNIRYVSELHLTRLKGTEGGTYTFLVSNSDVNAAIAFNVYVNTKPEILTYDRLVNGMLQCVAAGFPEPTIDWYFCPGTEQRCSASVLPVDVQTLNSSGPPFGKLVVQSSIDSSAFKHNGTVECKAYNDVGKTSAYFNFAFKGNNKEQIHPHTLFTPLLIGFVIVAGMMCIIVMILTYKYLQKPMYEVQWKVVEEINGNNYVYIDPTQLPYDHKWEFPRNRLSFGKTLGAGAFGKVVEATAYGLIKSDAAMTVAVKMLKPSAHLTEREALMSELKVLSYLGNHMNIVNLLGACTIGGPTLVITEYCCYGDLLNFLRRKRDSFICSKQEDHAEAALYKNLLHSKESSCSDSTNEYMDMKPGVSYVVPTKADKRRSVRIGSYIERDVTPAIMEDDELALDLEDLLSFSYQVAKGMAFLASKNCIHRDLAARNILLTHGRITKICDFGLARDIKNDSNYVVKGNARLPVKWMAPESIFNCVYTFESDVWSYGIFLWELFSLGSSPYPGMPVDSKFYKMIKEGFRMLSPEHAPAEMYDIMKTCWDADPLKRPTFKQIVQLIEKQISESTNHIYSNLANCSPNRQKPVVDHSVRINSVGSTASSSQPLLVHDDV
row,"Biological Activity (Approximate, compared to wild type SCF) (fold lower than wild type SCF)",Substance
1,100,SCF(D25C) (from UniProt P21583 26-166) (ligand)
2,7,SCF(K62C) (from UniProt P21583 26-166) (ligand)
3,3,"SCF(K78N, N81K) (from UniProt P21583 26-166) (ligand)"
4,10,"SCF(R117A, I118A) (from UniProt P21583 26-166) (ligand)"
